# From article PMC9502857, “Heterologous Expression and Catalytic Properties of Codon-Optimized Small-Sized Bromelain from MD2 Pineapple” (Molecules, 2022)
# Tested on: O=C(CNC(=O)OCc1ccccc1)Oc1ccc([N+](=O)[O-])cc1
# Assay: purified protein
# Settings: 20 mM Tris-HCl pH 8.0, 37 °C (methods; results pH 5.0), GST fusion
substance,measurement,value
MD2-SBro (small-sized bromelain from MD2 pineapple) (Ananas comosus),Km,42.1 ± 3.81 µM
same,Vmax,0.432 µM/min
same,kcat,0.2 ± 0.008 s⁻¹
same,kcat/Km,4750 ± 230 M⁻¹ s⁻¹
